Measurements as given in patent publication US20240240159A1.
Each block holds one substance with its values, some of them ahead of it.

Key:
Assay in all cases: cell-based or functional assay
[1] = biological target: 341BP NTproBNP epitope-grafted FAD-GDH
[2] = biological target: Purified NTproBNP antigen (UniProt P16860)
[3] = biological target: 358BP NTproBNP epitope-grafted FAD-GDH
[4] = biological target: 358HNL-H1 epitope-grafted FAD-GDH
[5] = biological target: 358HNL-H3 epitope-grafted FAD-GDH
358HNL-H3 epitope-grafted FAD-GDH, sequence (chain, as listed by the source): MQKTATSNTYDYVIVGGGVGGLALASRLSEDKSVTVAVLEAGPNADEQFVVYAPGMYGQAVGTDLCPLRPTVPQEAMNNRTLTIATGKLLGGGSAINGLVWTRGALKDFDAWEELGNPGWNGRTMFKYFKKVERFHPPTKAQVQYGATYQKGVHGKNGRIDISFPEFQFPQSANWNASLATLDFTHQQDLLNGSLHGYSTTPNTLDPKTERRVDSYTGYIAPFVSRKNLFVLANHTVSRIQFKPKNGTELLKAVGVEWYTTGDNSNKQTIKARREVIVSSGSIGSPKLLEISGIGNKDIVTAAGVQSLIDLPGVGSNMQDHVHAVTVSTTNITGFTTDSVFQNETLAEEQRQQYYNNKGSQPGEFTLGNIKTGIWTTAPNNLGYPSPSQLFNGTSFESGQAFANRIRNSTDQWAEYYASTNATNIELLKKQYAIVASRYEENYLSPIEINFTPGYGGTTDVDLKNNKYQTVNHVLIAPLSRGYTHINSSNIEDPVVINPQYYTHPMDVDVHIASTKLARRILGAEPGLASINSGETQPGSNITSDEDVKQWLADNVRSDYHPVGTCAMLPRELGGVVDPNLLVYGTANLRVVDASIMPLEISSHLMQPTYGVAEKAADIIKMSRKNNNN

[6] = biological target: V5 peptide, Sigma (cat #V7754-4MG)
[7] = biological target: 341V5 epitope-grafted FAD-GDH

UniProt P16860, sequence (P16860 27-134 limits assumed): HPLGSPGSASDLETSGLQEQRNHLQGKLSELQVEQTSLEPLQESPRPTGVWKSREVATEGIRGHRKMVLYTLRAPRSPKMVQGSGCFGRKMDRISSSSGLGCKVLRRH
358BP NTproBNP epitope-grafted FAD-GDH, sequence (chain, as listed by the source): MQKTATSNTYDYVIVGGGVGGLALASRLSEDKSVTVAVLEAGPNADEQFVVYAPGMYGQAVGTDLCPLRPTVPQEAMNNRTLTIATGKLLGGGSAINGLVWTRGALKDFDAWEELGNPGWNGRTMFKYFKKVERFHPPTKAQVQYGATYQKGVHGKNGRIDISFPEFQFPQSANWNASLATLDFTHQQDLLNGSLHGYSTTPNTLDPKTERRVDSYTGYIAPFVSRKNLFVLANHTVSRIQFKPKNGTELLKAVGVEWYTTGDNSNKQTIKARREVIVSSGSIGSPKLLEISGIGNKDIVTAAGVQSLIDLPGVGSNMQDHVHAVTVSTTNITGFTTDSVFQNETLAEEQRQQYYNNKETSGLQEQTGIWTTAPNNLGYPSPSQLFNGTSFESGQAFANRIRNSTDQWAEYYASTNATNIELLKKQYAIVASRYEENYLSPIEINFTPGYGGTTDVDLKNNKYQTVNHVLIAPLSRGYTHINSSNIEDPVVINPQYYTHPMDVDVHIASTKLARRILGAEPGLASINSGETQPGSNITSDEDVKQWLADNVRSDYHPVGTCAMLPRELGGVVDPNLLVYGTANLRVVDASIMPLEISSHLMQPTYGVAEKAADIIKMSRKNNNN
358HNL-H1 epitope-grafted FAD-GDH, sequence (chain, as listed by the source): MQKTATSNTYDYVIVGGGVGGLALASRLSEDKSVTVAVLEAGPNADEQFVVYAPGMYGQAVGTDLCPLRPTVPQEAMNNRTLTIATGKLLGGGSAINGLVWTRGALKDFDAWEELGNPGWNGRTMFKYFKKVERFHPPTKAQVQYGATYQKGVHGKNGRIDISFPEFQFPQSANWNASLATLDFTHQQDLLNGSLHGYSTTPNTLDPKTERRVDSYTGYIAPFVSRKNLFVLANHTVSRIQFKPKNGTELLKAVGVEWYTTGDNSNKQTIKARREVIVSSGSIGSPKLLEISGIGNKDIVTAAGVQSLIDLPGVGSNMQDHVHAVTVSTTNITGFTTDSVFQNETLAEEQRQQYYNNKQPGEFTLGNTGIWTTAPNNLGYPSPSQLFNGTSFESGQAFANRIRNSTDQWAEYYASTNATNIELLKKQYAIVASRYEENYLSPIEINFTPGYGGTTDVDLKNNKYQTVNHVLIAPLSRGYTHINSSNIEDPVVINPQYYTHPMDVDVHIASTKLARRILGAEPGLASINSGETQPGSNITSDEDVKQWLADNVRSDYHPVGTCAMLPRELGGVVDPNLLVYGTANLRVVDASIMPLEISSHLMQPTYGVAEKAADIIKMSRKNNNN
341BP NTproBNP epitope-grafted FAD-GDH, sequence (chain, as listed by the source): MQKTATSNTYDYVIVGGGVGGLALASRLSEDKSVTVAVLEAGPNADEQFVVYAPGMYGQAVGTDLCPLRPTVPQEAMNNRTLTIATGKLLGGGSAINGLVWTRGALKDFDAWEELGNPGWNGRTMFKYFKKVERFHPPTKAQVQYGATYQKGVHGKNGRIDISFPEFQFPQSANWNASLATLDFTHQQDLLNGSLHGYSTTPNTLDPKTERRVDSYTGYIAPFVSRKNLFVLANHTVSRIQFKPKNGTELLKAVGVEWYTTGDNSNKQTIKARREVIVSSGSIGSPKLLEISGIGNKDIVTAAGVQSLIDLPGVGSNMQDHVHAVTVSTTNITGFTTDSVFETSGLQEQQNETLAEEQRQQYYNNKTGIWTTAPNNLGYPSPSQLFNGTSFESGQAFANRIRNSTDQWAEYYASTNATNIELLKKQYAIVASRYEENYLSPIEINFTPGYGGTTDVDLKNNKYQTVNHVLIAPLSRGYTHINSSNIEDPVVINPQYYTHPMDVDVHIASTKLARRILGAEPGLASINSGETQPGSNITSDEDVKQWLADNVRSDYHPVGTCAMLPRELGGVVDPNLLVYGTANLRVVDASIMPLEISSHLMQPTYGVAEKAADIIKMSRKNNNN

percent inhibition of GDH activity, 500 nM antibody [1]: 25%
percent inhibition of 341BP / 358BP by 500 nM antibody in the presence of 5 µM NTproBNP antigen [2]: 0%
percent inhibition of GDH activity, 500 nM antibody [3]: 7%
Substance: Mouse α-NTproBNP antibody, Biorad (cat #MCA2641)

percent inhibition by 500 nM Novus antibody in the presence of 5 µM NTproBNP antigen [2]: 0%
percent inhibition of GDH activity, 500 nM antibody [3]: 7%
Substance: Mouse α-NTproBNP antibody, Novus (cat #NB200-439)

percent inhibition of GDH activity, 25 nM antibody [4]: 20%
percent inhibition of GDH activity, 25 nM antibody [5]: 60%
Substance: Rabbit α-HNL mAb, Abcam (cat #ab206427) (antibody)

Substance: α-V5 antibody, mouse monoclonal, Sigma (cat #V8012-50UG)
percent inhibition of 341V5 by 300 nM α-V5 antibody in the presence of 3 µM V5 peptide [6]: 9%
percent inhibition of GDH activity, 300 nM antibody [7]: 50%
